{
  "source": "patent US20200407467",
  "proteins": {"B1": {"name": "Caspase-1 (recombinant) (protein)", "chain": "NPAMPTSSGSEGNVKLCSLEEAQRIWKQKSAEIYPIMDKSSRTRLALIICNEEFDSIPRRTGAEVDITGMTMLLQNLGYSVDVKKNLTASDMTTELEAFAHRPEHKTSDSTFLVFMSHGIREGICGKKHSEQVPDILQLNAIFNMLNTKNCPSLKDKPKVIIIQACRGDSPGVVWFKDSVGVSGNLSLPTTEEFEDDAIKKAHIEKDFIAFCSSTPDNVSWRHPTMGSVFIGRLIEHMQEYACSCDVEEIFRKVRFSFEQPDGRAQMPTTERVTLTRCFYLFPGH"}},
  "key": {"[1]": {"target": "T1, UHRF1BP1L peptide 991-1080 (human library), A0JNW5", "T1 chain": "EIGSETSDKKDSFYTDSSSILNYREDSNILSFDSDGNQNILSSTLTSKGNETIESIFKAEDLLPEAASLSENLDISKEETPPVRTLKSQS"}, "[2]": {"target": "T2, Znf462 peptide 1-90 (human library), Q96JM2", "T2 chain": "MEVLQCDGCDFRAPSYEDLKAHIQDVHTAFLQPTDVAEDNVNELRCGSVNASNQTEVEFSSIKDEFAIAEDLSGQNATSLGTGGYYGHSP"}, "[3]": {"target": "T3, IL1B peptide 0-56 (mouse library)", "T3 chain": "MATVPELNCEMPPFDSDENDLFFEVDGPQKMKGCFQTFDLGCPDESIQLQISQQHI"}, "[4]": {"target": "Gasdermin-D (peptides of the human library)"}, "[5]": {"target": "T4, LYST peptide 1171-1260 (human library), Q99698", "T4 chain": "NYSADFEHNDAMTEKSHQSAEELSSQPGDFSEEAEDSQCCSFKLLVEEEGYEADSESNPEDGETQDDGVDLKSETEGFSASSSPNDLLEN"}, "[6]": {"target": "T5, HUWE1 peptide 2291-2347 (mouse library), Q7TMY8", "T5 chain": "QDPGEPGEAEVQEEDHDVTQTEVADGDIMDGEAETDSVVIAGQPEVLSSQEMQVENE"}, "[7]": {"target": "T6, Efs peptide 181-270 (human library), O43281", "T6 chain": "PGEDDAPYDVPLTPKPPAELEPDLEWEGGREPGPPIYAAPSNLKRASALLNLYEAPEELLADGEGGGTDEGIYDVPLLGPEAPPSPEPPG"}, "[8]": {"target": "T7, GSDMD peptide 222-278 (mouse library)", "T7 chain": "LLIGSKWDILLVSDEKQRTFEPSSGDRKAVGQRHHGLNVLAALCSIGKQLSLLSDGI"}, "[9]": {"target": "T7-SEPARATE PreScission-cleavable clone, monovalent display (T7Select1-2b)"}, "[10]": {"target": "T8, IL1B peptide 75-131 (mouse library)", "T8 chain": "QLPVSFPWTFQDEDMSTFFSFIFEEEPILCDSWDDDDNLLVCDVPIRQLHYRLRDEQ"}, "[11]": {"target": "T9, TNS3 peptide 451-540 (human library), Q68CZ2", "T9 chain": "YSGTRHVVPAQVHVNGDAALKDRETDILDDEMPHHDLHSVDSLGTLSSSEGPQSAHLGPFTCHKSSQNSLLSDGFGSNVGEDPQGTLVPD"}, "[12]": {"target": "T10, ERO1L peptide 91-180 (human library), Q96HE7", "T10 chain": "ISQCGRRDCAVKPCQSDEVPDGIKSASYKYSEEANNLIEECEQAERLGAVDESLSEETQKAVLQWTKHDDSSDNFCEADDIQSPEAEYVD"}, "[13]": {"target": "T11, hoxa2 peptide 271-360 (human library), O43364", "T11 chain": "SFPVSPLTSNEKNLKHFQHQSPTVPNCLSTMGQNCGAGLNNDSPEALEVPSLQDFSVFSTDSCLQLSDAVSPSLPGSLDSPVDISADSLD"}, "[14]": {"target": "T12, BSN peptide 631-720 (human library), Q9UPA5", "T12 chain": "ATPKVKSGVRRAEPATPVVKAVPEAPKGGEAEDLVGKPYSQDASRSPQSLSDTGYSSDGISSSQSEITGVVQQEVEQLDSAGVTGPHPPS"}, "[15]": {"target": "T13, Hmcn2 peptide 1576-1665 (human library), Q8NDA2", "T13 chain": "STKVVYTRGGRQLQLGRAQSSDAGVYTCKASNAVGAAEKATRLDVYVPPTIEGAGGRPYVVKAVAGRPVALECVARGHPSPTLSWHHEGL"}, "[16]": {"target": "T14, ZNF469 peptide 811-900 (human library), Q96JG9", "T14 chain": "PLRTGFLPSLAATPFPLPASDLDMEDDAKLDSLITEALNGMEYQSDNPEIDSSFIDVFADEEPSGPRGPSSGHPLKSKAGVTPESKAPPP"}, "[17]": {"target": "MAP3K14 peptide 496-585 (human library), Q99558"}, "[18]": {"target": "LOC100287737 peptide 496-585 (human library)"}, "[19]": {"target": "T15, HUWE1 peptide 2296-2485 (human library), Q7Z6Z7", "T15 chain": "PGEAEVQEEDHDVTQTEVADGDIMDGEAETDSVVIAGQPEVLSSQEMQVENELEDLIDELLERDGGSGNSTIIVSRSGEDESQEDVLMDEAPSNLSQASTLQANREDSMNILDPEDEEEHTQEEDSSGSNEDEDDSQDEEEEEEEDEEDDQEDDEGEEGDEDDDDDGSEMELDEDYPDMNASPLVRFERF"}, "[20]": {"target": "T16, HMGXB4 peptide 226-315 (human library), Q9UGU5", "T16 chain": "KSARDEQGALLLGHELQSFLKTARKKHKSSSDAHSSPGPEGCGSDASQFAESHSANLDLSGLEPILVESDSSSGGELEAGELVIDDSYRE"}, "[21]": {"target": "T17, Hyls1 peptide 1-90 (human library), Q96M11", "T17 chain": "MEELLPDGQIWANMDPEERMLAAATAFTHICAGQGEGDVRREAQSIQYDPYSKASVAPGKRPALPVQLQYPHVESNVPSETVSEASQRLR"}, "[22]": {"target": "HECT, UBA and WWE Domain Containing E3 Ubiquitin Protein Ligase 1 (HUWE1), endogenous in THP-1 cells, Q7Z6Z7"}, "[23]": {"target": "T18, C14orf93 peptide 91-180 (human library), Q9H972", "T18 chain": "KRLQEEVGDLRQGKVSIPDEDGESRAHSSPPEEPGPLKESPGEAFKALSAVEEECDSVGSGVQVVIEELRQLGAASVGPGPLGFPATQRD"}, "[24]": {"target": "T19, HUWE1 peptide 2341-2430 (human library), Q7Z6Z7", "T19 chain": "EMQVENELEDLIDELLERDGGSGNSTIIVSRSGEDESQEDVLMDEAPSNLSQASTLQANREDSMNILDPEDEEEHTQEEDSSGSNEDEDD"}, "[25]": {"target": "T20, HUWE1 peptide 2251-2340 (human library), Q7Z6Z7", "T20 chain": "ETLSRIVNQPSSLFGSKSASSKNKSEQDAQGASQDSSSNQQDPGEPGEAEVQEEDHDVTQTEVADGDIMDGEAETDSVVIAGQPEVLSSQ"}, "[26]": {"target": "T21, HUWE1 peptide 2328-2384 (mouse library), Q7TMY8", "T21 chain": "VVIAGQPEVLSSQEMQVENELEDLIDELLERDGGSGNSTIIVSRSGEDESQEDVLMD"}, "[27]": {"target": "T22, IL1B peptide 74-130 (mouse library)", "T22 chain": "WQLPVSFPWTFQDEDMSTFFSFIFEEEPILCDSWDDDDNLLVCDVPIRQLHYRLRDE"}, "[28]": {"target": "T23, GSDMD peptide 259-315 (mouse library)", "T23 chain": "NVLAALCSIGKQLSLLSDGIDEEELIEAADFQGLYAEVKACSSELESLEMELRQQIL"}, "[29]": {"target": "unmapped_NM peptide 91-180 (human library)"}, "[30]": {"target": "T24, ANAPC1 peptide 1-90 (human library), Q9H1A4", "T24 chain": "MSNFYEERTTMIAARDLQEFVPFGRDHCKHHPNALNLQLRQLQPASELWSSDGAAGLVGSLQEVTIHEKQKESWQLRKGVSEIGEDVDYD"}},
  "data": [
    {"protein": "B1", "values": [
      {"measurement": "Caspase1 fold change", "setting": "[1]", "result": 16.4, "unit": "fold"},
      {"measurement": "Caspase1 fold change", "setting": "[2]", "result": 19.1, "unit": "fold"},
      {"measurement": "Caspase1 fold change", "setting": "[3]", "result": 8.1, "unit": "fold"},
      {"measurement": "enrichment in SEPARATE (human library digest)", "setting": "[4]", "result": "did not score in the assay"},
      {"measurement": "Caspase1 fold change", "setting": "[5]", "result": 21, "unit": "fold"},
      {"measurement": "Caspase1 fold change", "setting": "[6]", "result": 6.13, "unit": "fold"},
      {"measurement": "Caspase1 fold change", "setting": "[7]", "result": 21.1, "unit": "fold"},
      {"measurement": "Caspase1 fold change", "setting": "[8]", "result": 4.23, "unit": "fold"},
      {"measurement": "enrichment of the PreScission digestible clone spiked into the human library", "setting": "[9]", "result": "no enrichment is observed when digested with Caspase-1"},
      {"measurement": "Caspase1 fold change", "setting": "[10]", "result": 8.8, "unit": "fold"},
      {"measurement": "Caspase1 fold change", "setting": "[11]", "result": 18.7, "unit": "fold"},
      {"measurement": "Caspase1 fold change", "setting": "[12]", "result": 19.8, "unit": "fold"},
      {"measurement": "Caspase1 fold change", "setting": "[13]", "result": 17.1, "unit": "fold"},
      {"measurement": "Caspase1 fold change", "setting": "[14]", "result": 18.8, "unit": "fold"},
      {"measurement": "Caspase1 fold change", "setting": "[15]", "result": 16.3, "unit": "fold"},
      {"measurement": "Caspase1 fold change", "setting": "[16]", "result": 16.8, "unit": "fold"},
      {"measurement": "Caspase1 fold change", "setting": "[17]", "result": 16.5, "unit": "fold"},
      {"measurement": "Caspase1 fold change", "setting": "[18]", "result": 16.4, "unit": "fold"},
      {"measurement": "Caspase1 fold change", "setting": "[19]", "result": 22.7, "unit": "fold"},
      {"measurement": "Caspase1 fold change", "setting": "[20]", "result": 16.5, "unit": "fold"},
      {"measurement": "Caspase1 fold change", "setting": "[21]", "result": 19.7, "unit": "fold"},
      {"measurement": "Western blot, cleavage of endogenous HUWE1 in THP-1 lysate", "setting": "[22]", "result": "robust cleavage of endogenous HUWE1"},
      {"measurement": "Caspase1 fold change", "setting": "[23]", "result": 18.2, "unit": "fold"},
      {"measurement": "Caspase1 fold change", "setting": "[24]", "result": 16.6, "unit": "fold"},
      {"measurement": "Caspase1 fold change", "setting": "[25]", "result": 17.6, "unit": "fold"},
      {"measurement": "Caspase1 fold change", "setting": "[26]", "result": 23.1, "unit": "fold"},
      {"measurement": "Caspase1 fold change", "setting": "[27]", "result": 13.2, "unit": "fold"},
      {"measurement": "Caspase1 fold change", "setting": "[28]", "result": 6.78, "unit": "fold"},
      {"measurement": "Caspase1 fold change", "setting": "[29]", "result": 18.7, "unit": "fold"},
      {"measurement": "Caspase1 fold change", "setting": "[30]", "result": 16.4, "unit": "fold"}
    ]}
  ]
}
